Assay results taken from article PMC11098746 (2024).
No end group written: not given here.

B1: ADP317 (protein)
chain: MGSWALLWPPLLFTGLLVRPPGTMAQAQYCSVNKDIFEVEENTNVTEPLVDIHVPEGQEVTLGALSTPFAFRIQGNQLFLNVTPDYEEKSLLEAQLLCQSGGTLVTQLRVFVSVLDVNDNAPEFPFKTKEIRVEEDTKVNSTVIPETQLQAEDRDKDDILFYTLQEMTAGASDYFSLVSVNRPALRLDRPLDFYERPNMTFWLLVRDTPGENVEPSHTATATLVLNVVPADLRPPWFLPCTFSDGYVCIQAQYHGAVPTGHILPSPLVLRPGPIYAEDGDRGINQPIIYSIFRGNVNGTFIIHPDSGNLTVARSVPSPMTFLLLVKGQQADLARYSVTQVTVEAVAAAGSPPRFPQRLYRGTVARGAGAGVVVKDAAAPSQPLRIQAQDPEFSDLNSAITYRITNHSHFRMEGEVVLTTTTLAQAGAFYAEVEAHNTVTSGTATTVIEIQVSEQEPPSTDVPPSPEAGGTTGPWTSTTSEVPRPPEPSQGPSTTSSGGGTGPHPPSGTTLRPPTSSTPGGPPGAENSTSHQPATPGGDTAQTPKPGTSQPMPPGVGTSTSHQPATPSGGTAQTPEPGTSQPMPPSMGTSTSHQPATPGGGTAQTPEAGTSQPMPPGMGTSTSHQPTTPGGGTAQTPEPGTSQPMPLSKSTPSSGGGPSEDKRFSVVDMA
modifications: bait human Fc-tagged dimer
B2: ADP261 (protein)
chain: KWETKNCSVSSTNANDITQSLTGKGNDSEEEMRFQEVFMEHMSNMEKRIQHILDMEANLMDTEHFQNFSMTTDQRFNDILLQLSTLFSSVQGHGNAIDEISKSLISLNTTLLDLQLNIENLNGKIQENTFKQQEEISKLEERVYNVSAEIMAMKEEQVHLEQEIKGEVKVLNNITNDLRLKDWEHSQTLRNITLIQGPPGPPGEKGDRGPTGESGPRGFPGPIGPPGLKGDRGAIGFPGSRGLPGYAGRPGNSGPKGQKGEKGSGNTLTPFTKVRLVGGSGPHEGRVEILHSGQWGTICDDRWEVRVGQVVCRSLGYPGVQAVHKAAHFGQGTGPIWLNEVFCFGRESSIEECKIRQWGTRACSHSEDAGVTCTL
modifications: bait human Fc-tagged dimer
B3: ADP146 (protein)
chain: MVAWRSAFLVCLAFSLATLVQRGSGDFDDFNLEDAVKETSSVKQPWDHTTTTTTNRPGTTRAPAKPPGSGLDLADALDDQDDGRRKPGIGGRERWNHVTTTTKRPVTTRAPANTLGNDFDLADALDDRNDRDDGRRKPIAGGGGFSDKDLEDIVGGGEYKPDKGKGDGRYGSNDDPGSGMVAEP
modifications: bait human Fc-tagged dimer
B4: ADP325 (protein)
chain: MAAAQEADGARSAVVAAGGGSSGQVTSNGSIGRDPPAETQPQNPPAQPAPNAWQVIKGVLFRIFIIWAISSWFRRGPAPQDQAGPGGAPRVASRNLFPKDTLMNLHVYISEHEHFTDFNATSALFWEQHDLVYGDWTSGENSDGCYEHFAELDIPQSVQQNGSIYIHVYFTKSGFHPDPRQKALYRRLATVHMSRMINKYKRRRFQKTKNLLTGETEADPEMIKRAEDYGPVEVISHWHPNITINIVDDHTPWVKGSVPPPLDQYVKFDAVSGDYYPIIYFNDYWNLQKDYYPINESLASLPLRVSFCPLSLWRWQLYAAQSTKSPWNFLGDELYEQSDEEQDSVKVALLETNP
modifications: bait human Fc-tagged dimer
B5: ADP155 (protein)
chain: MAPARLFALLLFFVGGVAESIRETEVIDPQDLLEGRYFSGALPDDEDVVGPGQESDDFELSGSGDLDDLEDSMIGPEVVHPLVPLDNHIPERAGSGSQVPTEPKKLEENEVIPKRISPVEESEDVSNKVSMSSTVQGSNIFERTEV
modifications: bait human Fc-tagged dimer
B6: ADP279 (protein)
chain: RMAHKFITGKLVEDERSDREETESSEGEEAAAGGGAKSRPLANGHPILNNNHRKND
modifications: also: human Fc-tagged dimer
B7: ADP354 (protein)
chain: MGPWSRSLSALLLLLQVSSWLCQEPEPCHPGFDAESYTFTVPRRHLERGRVLGRVNFEDCTGRQRTAYFSLDTRFKVGTDGVITVKRPLRFHNPQIHFLVYAWDSTYRKFSTKVTLNTVGHHHRPPPHQASVSGIQAELLTFPNSSPGLRRQKRDWVIPPISCPENEKGPFPKNLVQIKSNKDKEGKVFYSITGQGADTPPVGVFIIERETGWLKVTEPLDRERIATYTLFSHAVSSNGNAVEDPMEILITVTDQNDNKPEFTQEVFKGSVMEGALPGTSVMEVTATDADDDVNTYNAAIAYTILSQDPELPDKNMFTINRNTGVISVVTTGLDRESFPTYTLVVQAADLQGEGLSTTATAVITVTDTNDNPPIFNPTTYKGQVPENEANVVITTLKVTDADAPNTPAWEAVYTILNDDGGQFVVTTNPVNNDGILKTAKGLDFEAKQQYILHVAVTNVVPFEVSLTTSTATVTVDVLDVNEAPIFVPPEKRVEVSEDFGVGQEITSYTAQEPDTFMEQKITYRIWRDTANWLEINPDTGAISTRAELDREDFEHVKNSTYTALIIATDNGSPVATGTGTLLLILSDVNDNAPIPEPRTIFFCERNPKPQVINIIDADLPPNTSPFTAELTHGASANWTIQYNDPTQESIILKPKMALEVGDYKINLKLMDNQNKDQVTTLEVSVCDCEGAAGVCRKAQPVEAGLQIP
modifications: bait human Fc-tagged dimer
B8: ADP341 (protein)
chain: MEAAVAAPRPRLLLLVLAAAAAAAAALLPGATALQCFCHLCTKDNFTCVTDGLCFVSVTETTDKVIHNSMCIAEIDLIPRDRPFVCAPSSKTGSVTTTYCCNQDHCNKIELPTTVKSSPGLGP
modifications: bait human Fc-tagged dimer
B9: ADP138 (protein)
chain: MAGKSSTRAVLLLLGIQLTALWPIAAVEIYTSRVLEAVNGTDARLKCTFSSFAPVGDALTVTWNFRPLDGGPEQFVFYYHIDPFQPMSGRFKDRVSWDGNPERYDASILLWKLQFDDNGTYTCQVKNPPDVDGVIGEIRLSVVHTVRFS
modifications: bait human Fc-tagged dimer
B10: ADP120 (protein)
chain: MAGVGAGPLRAMGRQALLLLALCATGAQGLYFHIGETEKRCFIEEIPDETMVIGNYRTQMWDKQKEVFLPSTPGLGMHVEVKDPDGKVVLSRQYGSEGRFTFTSHTPGDHQICLHSNSTRMALFAGGKLRVHLDIQVGEHANNYPEIAAKDKLTELQLRARQLLDQVEQIQKEQDYQRYREERFRLTSESTNQR
modifications: bait human Fc-tagged dimer
B11: ADP352 (protein)
chain: MGHLSAPLHRVRVPWQGLLLTASLLTFWNPPTTAQLTTESMPFNVAEGKEVLLLVHNLPQQLFGYSWYKGERVDGNRQIVGYAIGTQQATPGPANSGRETIYPNASLLIQNVTQNDTGFYTLQVIKSDLVNEEATGQFHVYPELPKPSISSNNSNPVEDKDAVAFTCEPETQDTTYLWWINNQSLPVSPRLQLSNGNRTLTLLSVTRNDTGPYECEIQNPVSANRSDPVTLNVTYGPDTPTISPSDTYYRPGANLSLSCYAASNPPAQYSWLINGTFQQSTQELFIPNITVNNSGSYTCHANNSVTGCNRTTVKTIIVTELSPVVAKPQIKASKTTVTGDKDSVNLTCSTNDTGISIRWFFKNQSLPSSERMKLSQGNTTLSINPVKREDAGTYWCEVFNPISKNQSDPIMLNVNYNALPQENGLSPG
modifications: bait human Fc-tagged dimer
B12: ADP374 (protein)
chain: MKETLYDEVLAKQKREQKLIPTKTDKKKAEKKKNKKKEIQNGNLHESDSESVPRDFKLSDALAVEDDQVAPVPLNVVETSSSVRERKKKEKKQKPVLEEQVIKESDASKIPGKKVEPVPVTKQPTPPSEAAASKKKPGQKKSKNGSDDQDKKVETLMVPSKRQEALPLHQETKQESGSGKKKASSKKQKTENVFVDEPLIHATTYIPLMDNADSSPVVDKREVIDLLKPDQVEGIQKSGTKKLKTETDKENAEVKFKDFLLSLKTMMFSEDEALCVVDLLKEKSGVIQDALKKSSKGELTTLIHQLQEKDKLLAAVKEDAAATKDRCKQLTQEMMTEKERSNVVITRMKDRIGTLEKEHNVFQNKIHVSYQETQQMQMKFQQVREQMEAEIAHLKQENGILRDAVSNTTNQLESKQSAELNKLRQDYARLVNELTEKTGKLQQEEVQKKNAEQAATQLKVQLQEAERRWEEVQSYIRKRTAEHEAAQQDLQSKFVAKENEVQSLHSKLTDTLVSKQQLEQRLMQLMESEQKRVNKEESLQMQVQDILEQNEALKAQIQQFHSQIAAQTSASVLAEELHKVIAEKDKQIKQTEDSLASERDRLTSKEEELKDIQNMNFLLKAEVQKLQALANEQAAAAHELEKMQQSVYVKDDKIRLLEEQLQHEISNKMEEFKILNDQNKALKSEVQKLQTLVSEQPNKDVVEQMEKCIQEKDEKLKTVEELLETGLIQVATKEEELNAIRTENSSLTKEVQDLKAKQNDQVSFASLVEELKKVIHEKDGKIKSVEELLEAELLKVANKEKTVQDLKQEIKALKEEIGNVQLEKAQQLSITSKVQELQNLLKGKEEQMNTMKAVLEEKEKDLANTGKWLQDLQEENESLKAHVQEVAQHNLKEASSASQFEELEIVLKEKENELKRLEAMLKERESDLSSKTQLLQDVQDENKLFKSQIEQLKQQNYQQASSFPPHEELLKVISEREKEISGLWNELDSLKDAVEHQRKKNNDLREKNWEAMEALASTEKMLQDKVNKTSKERQQQVEAVELEAKEVLKKLFPKVSVPSNLSYGEWLHGFEKKAKECMAGTSGSEEVKVLEHKLKEADEMHTLLQLECEKYKSVLAETEGILQKLQRSVEQEENKWKVKVDESHKTIKQMQSSFTSSEQELERLRSENKDIENLRREREHLEMELEKAEMERSTYVTEVRELKDLLTELQKKLDDSYSEAVRQNEELNLLKAQLNETLTKLRTEQNERQKVAGDLHKAQQSLELIQSKIVKAAGDTTVIENSDVSPETESSEKETMSVSLNQTVTQLQQLLQAVNQQLTKEKEHYQVLE
modifications: bait human Fc-tagged dimer
B13: ADP296 (protein)
chain: MARERGALSRASRALRLAPFVYLLLIQTDPLEGVNITSPVRLIHGTVGKSALLSVQYSSTSSDRPVVKWQLKRDKPVTVVQSIGTEVIGTLRPDYRDRIRLFENGSLLLSDLQLADEGTYEVEISITDDTFTGEKTINLTVDVPISRPQVLVASTTVLELSEAFTLNCSHENGTKPSYTWLKDGKPLLNDSRMLLSPDQKVLTITRVLMEDDDLYSCMVENPISQGRSLPVKITVYRRSS
modifications: bait human Fc-tagged dimer
B14: ADP136 (protein)
chain: MVRIAGALRTLLPLLAALLQASVEASGEIALCKTGFPEDVYSAVLSKDVHEGQPLLNVKFSNCNGKRKVQYESSEPADFKVDEDGMVYAVRSFPLSSEHAKFLIYAQDKETQEKWQVAVKLSLKPTLTEESVKESAEVEEIVFPRQFSKHSGHLQRQKRDWVIPPINLPENSRGPFPQELVRIRSDRDKNLSLRYSVTGPGADQPPTGIFIINPISGQLSVTKPLDREQIARFHLRAHAVDINGNQVENPIDIVINVIDMNDNRPEFLHQVWNGTVPEGSKPGTYVMTVTAIDADDPNALNGMLRYRIVSQAPSTPSPNMFTINNETGDIITVAAGLDREKVQQYTLIIQATDMEGNPTYGLSNTATAVITVTDVNDNPPEFTAMTFYGEVPENRVDIIVANLTVTDKDQPHTPAWNAVYRISGGDPTGRFAIQTDPNSNDGLVTVVKPIDFETNRMFVLTVAAENQVPLAKGIQHPPQSTATVSVTVIDVNENPYFAPNPKIIRQEEGLHAGTMLTTFTAQDPDRYMQQNIRYTKLSDPANWLKIDPVNGQITTIAVLDRESPNVKNNIYNATFLASDNGIPPMSGTGTLQIYLLDINDNAPQVLPQEAETCETPDPNSINITALDYDIDPNAGPFAFDLPLSPVTIKRNWTITRLNGDFAQLNLKIKFLEAGIYEVPIIITDSGNPPKSNISILRVKVCQCDSNGDCTDVDRIVGAGLGT
modifications: bait human Fc-tagged dimer

target: Circumsporozoite protein (CSP) (Plasmodium falciparum (isolate 3D7), UniProt Q7K740); assay: AVEXIS screen signal:noise (double-corrected)
Sequence (Q7K740 19-374): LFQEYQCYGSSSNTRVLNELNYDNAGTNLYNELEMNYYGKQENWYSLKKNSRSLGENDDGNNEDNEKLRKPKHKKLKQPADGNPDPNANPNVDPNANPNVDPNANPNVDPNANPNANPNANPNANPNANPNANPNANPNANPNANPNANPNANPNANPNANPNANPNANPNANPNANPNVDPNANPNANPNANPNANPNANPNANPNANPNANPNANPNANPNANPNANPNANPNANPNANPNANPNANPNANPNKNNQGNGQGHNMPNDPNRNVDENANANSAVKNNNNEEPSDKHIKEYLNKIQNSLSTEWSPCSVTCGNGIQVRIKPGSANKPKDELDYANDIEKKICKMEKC

Binder | binding score
B1 | 2.47
B2 | 0.837
B3 | 1.36
B4 | 1.73
B5 | 0.582
B6 | 1.03
B7 | 0.796
B8 | 1.43
B9 | 0.831
B10 | 0.957
B11 | 1.31
B12 | 0.547
B13 | 0.997
B14 | 1.73
